Experimental data: patent US20060002925A1 (ZymoGenetics, published 2006)

What was measured:
human ZcytoR14 = biological target: T1, human ZcytoR14 (human, UniProt Q8NAC3 21-791); assay: cell-based or functional assay
T1 sequence: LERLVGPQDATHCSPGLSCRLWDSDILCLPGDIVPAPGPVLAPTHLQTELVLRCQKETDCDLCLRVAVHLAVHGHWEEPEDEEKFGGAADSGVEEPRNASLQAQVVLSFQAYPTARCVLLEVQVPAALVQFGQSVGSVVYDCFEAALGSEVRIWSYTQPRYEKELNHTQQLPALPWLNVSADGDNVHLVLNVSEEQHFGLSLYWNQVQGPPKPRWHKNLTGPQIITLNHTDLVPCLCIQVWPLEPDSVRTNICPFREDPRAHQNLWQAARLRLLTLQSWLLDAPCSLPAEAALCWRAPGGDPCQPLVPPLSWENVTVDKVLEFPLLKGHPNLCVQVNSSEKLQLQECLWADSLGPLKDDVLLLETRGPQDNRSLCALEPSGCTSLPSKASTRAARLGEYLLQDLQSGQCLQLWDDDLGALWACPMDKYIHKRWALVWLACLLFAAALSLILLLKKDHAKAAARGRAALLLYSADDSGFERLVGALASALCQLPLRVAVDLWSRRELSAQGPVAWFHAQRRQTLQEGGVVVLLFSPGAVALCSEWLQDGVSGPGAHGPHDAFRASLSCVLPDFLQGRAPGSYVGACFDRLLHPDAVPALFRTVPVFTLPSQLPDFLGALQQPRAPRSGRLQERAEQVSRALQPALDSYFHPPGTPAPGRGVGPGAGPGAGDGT

human IL-17 receptor = biological target: T2, human IL-17 receptor (human, UniProt Q96F46 33-320); assay: cell-based or functional assay
T2 sequence: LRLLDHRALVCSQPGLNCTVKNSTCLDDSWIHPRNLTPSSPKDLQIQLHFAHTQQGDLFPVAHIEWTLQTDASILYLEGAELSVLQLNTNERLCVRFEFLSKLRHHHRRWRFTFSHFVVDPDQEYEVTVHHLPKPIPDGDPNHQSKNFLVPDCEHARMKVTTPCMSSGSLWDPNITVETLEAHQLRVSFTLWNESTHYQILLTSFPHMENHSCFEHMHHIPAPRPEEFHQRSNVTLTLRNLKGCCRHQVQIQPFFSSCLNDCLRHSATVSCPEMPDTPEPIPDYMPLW

EC50 of ap1/nfkb luciferase activation in the hIL-17RCX1 recombinant line (human ZcytoR14): 0.61 ng/mL
fold more potent EC50 in the recombinant line against the parental line (human ZcytoR14): 17 fold
EC50 of ap1/nfkb luciferase activation in nih3t3/kz142.8/IL-17R cells (human IL-17 receptor): 12.4 ng/mL
B1: human IL-17F (ligand)
chain: RKIPKVGHTFFQKPESCPPVPGGSMKLDIGIINENQRVSMSRNIESRSTSPWNYTVTWDPNRYPSEVVQAQCRNLGCINAQGKEDISMNSVPIQQETLVVRRKHQGCSVSFQLEKVLVTVGCTCVTPVIHHVQ
modifications: biotinylated (Example 10) or 125I-radiolabeled by the iodobead method (Example 11) when used as tracer; unlabeled as cold competitor
